Measured values taken from US20050164933A1 (NONO, published 2005).

Molecular target: …
Experiment: G assay

B1: GST-PAR3 PDZ domain 3 fusion protein (other, not shown: a dimerising Fc or GST; small tags and cut ends)
chain: PREFLTFEVPLNDSGSAGLGVSVKGNRSKENHADLGIFVKSIINGGAASKDGRLRVNDQLIAVNGESLLGKTNQDAMETLRRSMSTEGNKRGMIQLIVASRISKCNELKSNSS
notes: also called PAR3 d3 (278.1); PAR3 d3
B1: binds.

B2: GST-ZO-1 PDZ domain 2 fusion protein (other, not shown: a dimerising Fc or GST; small tags and cut ends)
chain: ISSQPAKPTKVTLVKSRKNEEYGLRLASHIFVKEISQDSLAARDGNIQEGDVVLKINGTVTENMSLTDAKTLIERSKGKLKMVVQRDRATLLNSS
notes: also called ZO-1 d2 (241.3); ZO-1 d2
B2: binds.

B3: GST-RIM2 PDZ domain 1 fusion protein (other, not shown: a dimerising Fc or GST; small tags and cut ends)
chain: TLNEEHSHSDKHPVTWQPSKDGDRLIGRILLNKRLKDGSVPRDSGAMLGLKVVGGKMTESGRLCAFITKVKKGSLADTVGHLRPGDEVLEWNGRLLQGATFEEVYNIILESKPEPQVELVVSRPIG
notes: also called RIM-2 d1; RIM2 (177.4)
B3: binds.
